Substrate in data set [1]: Nc1ncnc2c1ncn2[C@@H]1O[C@H](COP(=O)(O)OP(=O)(O)OP(=O)(O)O)[C@@H](O)[C@H]1O
The data set is described as follows: purified protein, by the assay type. Conditions: pH 7.8.

Substrate in data set [2]: NC(=O)c1ccc[n+]([C@@H]2O[C@H](COP(=O)(O)OP(=O)(O)OC[C@H]3O[C@@H](n4cnc5c(N)ncnc54)[C@H](O)[C@@H]3O)[C@@H](O)[C@H]2O)c1
Nature of the data set: purified protein, by the assay type. The settings on record: pH 7.8.

B1: 6HIS-Δ38NADKc-1 (with AtCaM1/Ca^2+) (Arabidopsis thaliana) (protein)
chain: AGELLLRRRKLDQGASMGYKDVKIAPLIERKDSGRRSNLERFSHYVARQLGFEDPNEYPQLCKLANGYLLKTKGYDENVDEYLENEAERDSLYVHLLEEFDRCILTYFSFNWTQSSNLISQALSDESDQKVPKLKDFVMAATRKQRFERVTKDLKVKRVISTLVEEMRVIGSGSSEPHCTEVMSPVAHNKRSPVLLLMGGGMGAGKSTVLKDIFLESFWSEAQADAVVIEADAFKETDVIYRALSSRGHHDDMLQTAELVHQSSTDAASSLLVTALNDGRDVIMDGTLSWEPFVEQMIEMARNVHKQKYRMGEGYKVSEEGTITEKYWEEEEEETKENGKQQNLKPYRIELVGVVCDAYLAVARGIRRALMVKRAVRVKPQLNSHKRFANAFPKYCELVDNARLYCTNAVGGPPRLIAWKDGNSKLLVDPEDIDCLKRVSSLNPDAESIYELYPDPSQLSKPGSVWNDVVLVPSRPKVQKELSDAIRRIEKAQPKN
For the protein B1, in data set [1], the Km is given as 203(±30) uM, the kcat worked out at 41 ± 2 s⁻¹ and the kcat/Km was found to be 200000 M⁻¹ s⁻¹. In data set [2], the Km is 147 (±17) uM, the turnover number (kcat) stood at 42 ± 2 s⁻¹ and the specificity constant (kcat/Km) was 280000 M⁻¹ s⁻¹.

Broadly, the kcat is the maximal rate divided by the concentration of active sites. The term kcat/Km denotes the turnover number divided by the Michaelis constant.

Values taken from article doi:10.1101/521658v1.
